Target: B7-H3 ECD (extracellular domain of B7-H3) (UniProt Q5ZPR3)
Experiment: adsorption ELISA on B7-H3 ECD, serial dilutions of purified mAb, estimate of binding affinity

B1: TRL4542 (antibody, V domains shown)
VH: QVQLVESGGDLVQPGESLRLSCAASGFIFSDAWMVWVRQAPGKGLEWVGRIKTNGDGGTTDLTEPVKGRFTISRDDSKNMVYLQMNNLRTEDTAIYYCTTAPGFWGQGTLVTVSS
VL: DIEMTQSPDSLAVSLGERATINCKSSHNLLYKSNNKNYLAWSQQKPGQPPRLLIYWASTRDSGVPDRFSGSGSGTDFTLTISSLQAEDVAVYYCHQYYGTKWTFGQGTRVEIKR
B1 showed an Affinity of 5 nM.

From patent US20180186880A1
